Data published in patent publication US20240398951A1 (WISTAR INSTITUTE OF ANATOMY AND BIOLOGY, published 2024).

Target: T1, human follicle stimulating hormone receptor (FSHR) (human, UniProt P23945 18-695)
T1 sequence (looked up): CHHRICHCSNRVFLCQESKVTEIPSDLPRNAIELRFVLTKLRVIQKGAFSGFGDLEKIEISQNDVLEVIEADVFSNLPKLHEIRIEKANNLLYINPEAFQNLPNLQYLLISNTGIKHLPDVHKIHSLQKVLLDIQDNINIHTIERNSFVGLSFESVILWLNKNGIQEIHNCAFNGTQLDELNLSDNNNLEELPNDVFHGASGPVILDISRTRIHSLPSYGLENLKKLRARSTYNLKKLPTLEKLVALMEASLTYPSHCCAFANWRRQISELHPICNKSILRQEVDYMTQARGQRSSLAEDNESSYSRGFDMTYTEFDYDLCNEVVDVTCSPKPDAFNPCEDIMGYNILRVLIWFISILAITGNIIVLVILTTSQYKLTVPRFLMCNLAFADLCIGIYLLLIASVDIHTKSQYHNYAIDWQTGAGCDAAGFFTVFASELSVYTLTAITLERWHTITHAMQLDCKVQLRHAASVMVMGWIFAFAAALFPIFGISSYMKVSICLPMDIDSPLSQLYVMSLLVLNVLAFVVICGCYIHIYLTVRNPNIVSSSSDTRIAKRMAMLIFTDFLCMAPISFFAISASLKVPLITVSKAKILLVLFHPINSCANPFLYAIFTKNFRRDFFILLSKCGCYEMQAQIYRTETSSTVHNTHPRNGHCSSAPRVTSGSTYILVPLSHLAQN
Experiment: cell-based or functional assay

B1: D2AP11-TCE (FSHRxCD3 DNA encoded bispecific T cell engager) (bispecific antibody)
chain: DIQMTQSPSSLSASVGDRVTISCRASESVDNYGISFLNWFQQKPGKAPKLLIYAASNQRSGVPSRFSGSGSGTDFTLTISSLQPEDFATYFCQQSKEVPWTFGQGTKVEIKRGGGGSGGGGSGGGGSEVQLVESGGGLVQPGGSLRLSCSFSGFSLSTSGMGVGWIRQAPGKGLEWVAHIWWDDDKRYNPALKSRFTLSVDRSKNTLYLQMNSLRAEDTATYYCVQINYGNYRFDNWGHGTLVTVSSGGGGSEVQLVESGGGLVQPGGSLRLSCAASGYSFTGYTMNWVRQAPGKGLEWVALINPYKGVSTYNQKFKDRFTISVDKSKNTAYLQMNSLRAEDTAVYYCARSGYYGDSDWYFDVWGQGTLVTVSSGGGGSGGGGSGGGGSDIQMTQSPSSLSASVGDRVTITCRASQDIRNYLNWYQQKPGKAPKLLIYYTSRLESGVPSRFSGSGSGTDYTLTISSLQPEDFATYYCQQGNTLPWTFGQGTKVEIKSS
  EC50 of dose dependent killing of OVCAR3 cells (xCELLigence, human PBMCs/T cells): 0.0159 µg/mL
  EC50 of dose dependent killing of OVISE-FSHR cells (xCELLigence, human PBMCs/T cells): 0.0247 µg/mL
  EC50 of killing of OVCAR4 cells in presence of human PBMCs (xCELLigence): 0.0113 µg/mL
  potency of killing of OVCAR4 cells compared to the anti-FSHR ab D2AP11: ~1000 fold
